{
  "source": "patent US20120064075",
  "proteins": {"B1": {"name": "murine chimera FIXGla-Egf1FVIIa (protein)", "chain": "MKHLNTVMAESPALITIFLLGYLLSTECAVFLDRENATKILTRPKRYNSGKLEEFVRGNLERECIEERCSFEEAREVFENTEKTTEFWKQYVDGDQCESNPCLNGGICKDDISSYECWCQVGFEGRNCEFSKNEQLICANENGDCDQYCRDHVGTKRTCSCHEDYTLQPDEVSCKPKVEYPCGRIPVVEKRNSSSRQGRRKRRKRIVGGNVCPKGECPWQAVLKINGLLLCGAVLLDARWIVTAAHCFDNIRYWGNITVVMGEHDFSEKDGDEQVRRVTQVIMPDKYIRGKINHDIALLRLHRPVTFTDYVVPLCLPEKSFSENTLARIRFSRVSGWGQLLDRGATALELMSIEVPRLMTQDCLEHAKHSSNTPKITENMFCAGYMDGTKDACKGDSGGPHATHYHGTWYLTGVVSWGEGCAAIGHIGVYTRVSQYIDWLVRHMDSKLQVGVFRLPLL"}},
  "target": "type IV collagen",
  "data": [
    {"protein": "B1", "values": [
      {"measurement": "ELISA measurements of expressed chimera in blood 10 minutes after a bolus of FIX", "result": "a 4-fold increase in the chimeric protein was measured"}
    ]}
  ]
}
